Biological target: LIN-3^EGF (the purified EGF domain from LIN-3) (C. elegans)
Experiment: SPR; Biacore 3000; LIN-3 amine-coupled on CM5 chip, sLET-23 injected; steady state, single-site model; 10 mM Hepes pH 8.0, 150 mM NaCl, 3 mM EDTA, 0.005% P-20, room temperature

Kd: 2 to 4 µM
B1: LET-23 extracellular region (sLET-23) (domain or fragment)
chain: FGNSNAQLWKRCVSPQDCLCSGTTNGISRYGTGNILEDLETMYRGCRRVYGNLEITWIEANEIKKWRESTNSTVDPKNEDSPLKSINFFDNLEEIRGSLIIYRANIQKISFPRLRVIYGDEVFHDNALYIHKNDKVHEVVMRELRVIRNGSVTIQDNPKMCYIGDKIDWKELLYDPDVQKVETTNSHQHCYQNGKSMAKCHESCNDKCWGSGDNDCQRVYRSVCPKSCSQCFYSNSTSSYECCDSACLGGCTGHGPKNCIACSKYELDGICIETCPSRKIFNHKTGRLVFNPDGRYQNGNHCVKECPPELLIENDVCVRHCSDGHHYDATKDVRECEKCRSSSCPKICTVDGHLTNETLKNLEGCEQIDGHLIIEHAFTYEQLKVLETVKIVSEYITIVQQNFYDLKFLKNLQIIEGRKLHNVRWALAIYQCDDLEELSLNSLKLIKTGAVLIMKNHRLCYVSKIDWSSIITSKGKDNKPSLAIAENRDSKLCETEQRVCDKNCNKRGCWGKEPEDCLECKTWKSVGTCVEKCDTKGFLRNQTSMKCERCSPECETCNGLGELDCLTCRHKTLYNSDFGNRMECVHDCPVSHFPTQKNVCEKCHPTCYDNGCTGPDSNLGYGGCKQCKYAVKYENDTIFCLQSSGMNNVCVENDLPNYYISTYDTEGVIETHCEKCSISCKTCSSAGRNVVQNKCVCKHVEYQPNPSERICMDQCPVNSFMVPDTNNTVCKKCHHECDQNYHCANGQSTGCQKCKNFTVFKGDIAQCVSECPKNLPFSNPANGECLDYDIASRQRKTRM

Source: publication PMC4465127
